Measured values as given in patent EP2487185A1 (Clinuvel Pharmaceuticals Limited, dated 2012).
Non-standard residues stand in square brackets, D forms with d. Nle = CCCC[C@H](N)C(=O)O

Molecular target: Melanocortin-1 Receptor (human, UniProt Q01726 1-317)
Assay: cell-based or functional assay

Melanocortin-1 Receptor, sequence (Q01726 whole entry): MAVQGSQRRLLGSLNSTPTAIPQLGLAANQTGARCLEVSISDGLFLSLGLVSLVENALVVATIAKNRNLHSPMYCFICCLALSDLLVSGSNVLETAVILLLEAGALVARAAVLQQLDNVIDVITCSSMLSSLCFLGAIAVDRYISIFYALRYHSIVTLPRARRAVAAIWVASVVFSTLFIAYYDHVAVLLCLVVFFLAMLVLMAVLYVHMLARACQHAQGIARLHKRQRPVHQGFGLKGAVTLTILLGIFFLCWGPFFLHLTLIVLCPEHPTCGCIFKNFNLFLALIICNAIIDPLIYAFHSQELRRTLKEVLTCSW

B1: CUV9900, Ac-Nle-Glu-His-D-Phe-Arg-Trp-NH2 (SEQ ID NO: 1) variation (peptide)
peptide: Ac-[Nle]EH[dF]RW-NH2
SMILES: CCCC[C@H](NC(C)=O)C(=O)N[C@@H](CCC(=O)O)C(=O)N[C@@H](Cc1c[nH]cn1)C(=O)N[C@H](Cc1ccccc1)C(=O)N[C@@H](CCCNC(=N)N)C(=O)N[C@@H](Cc1c[nH]c2ccccc12)C(N)=O
  tyrosinase activity, concentration giving maximal stimulation, melanocyte strain 102b, 6 days: 0.1 nM
